Experimental data: paper PMC5141500

Legend:
[1] = molecular target: NTSR1-EL (baculovirus construct with wild-type ICL3) (rat) (UniProt P20789)
[2] = molecular target: NTSR1-ELF (baculovirus construct with wild-type ICL3) (rat) (UniProt P20789)

Chain of Gq protein (P50148 whole entry, looked up): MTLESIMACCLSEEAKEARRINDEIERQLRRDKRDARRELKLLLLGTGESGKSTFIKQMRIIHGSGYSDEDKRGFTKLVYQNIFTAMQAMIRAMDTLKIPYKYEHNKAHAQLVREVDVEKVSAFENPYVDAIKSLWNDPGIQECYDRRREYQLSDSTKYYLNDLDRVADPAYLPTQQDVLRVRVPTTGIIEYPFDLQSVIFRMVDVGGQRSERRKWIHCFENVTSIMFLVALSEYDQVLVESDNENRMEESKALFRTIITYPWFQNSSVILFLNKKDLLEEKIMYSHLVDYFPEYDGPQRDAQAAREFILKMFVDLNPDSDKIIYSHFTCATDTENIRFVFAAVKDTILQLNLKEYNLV

## neurotensin (NTS) (peptide)
[1]
  EC50 (NTS) GTPγS, half maximal effective concentration of NTS on the exchange of GDP for GTPγS on Gq: 5.5 nM

## Gq protein (from UniProt P50148 1-359) (complex)
[1]
  Fold-stimulation by NTS GTPγS: GDP/[35S]GTPγS exchange on Gq at saturating NTS compared to no ligand, urea-washed P2 insect cell membranes and purified Gq protein: 3.3 fold
[2]
  Fold-stimulation by NTS GTPγS: GDP/[35S]GTPγS exchange on Gq at saturating NTS compared to no ligand, urea-washed P2 insect cell membranes and purified Gq protein: 5.6 fold
